Fewer inactive variants are shown than the library holds.
Experiments:
[1] = test system: biotinyl-Phe-oxazolone; assay: self-aminoacylation, catalytic enhancement (BFO) (fold over background); higher = more active; k-Seq, kA / k0A0; sequences stand for … in GGGAAUGGAUCCACAUCUACGAAUUC…UUCACUGCAGACUUGACGAAGCUG
How it was run: (§1)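 Each biotinyl-aminoacyl-oxazolone, at 2–1250 μM, was incubated with mutagenized RNA pools (0.43 μM) carrying a 21-nt variable region. The 50 μL reactions contained HEPES/NaCl/KCl/MgCl2/CaCl2 buffer with 5% acetonitrile at pH 6.9–7.0 and ran for 90 minutes at room temperature. After streptavidin capture, RNA was measured by qPCR in triplicate and by Illumina sequencing, and catalytic enhancement was calculated as median kA over the uncatalyzed rate from a pseudo-first-order fit of per-sequence fraction reacted.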

[2] = test system: biotinyl-Trp-oxazolone; assay: self-aminoacylation, catalytic enhancement (BWO) (fold over background); higher = more active; k-Seq, kA / k0A0; sequences stand for … in GGGAAUGGAUCCACAUCUACGAAUUC…UUCACUGCAGACUUGACGAAGCUG
How it was run: as §1

[3] = test system: biotinyl-Met-oxazolone; assay: self-aminoacylation, catalytic enhancement (BMO) (fold over background); higher = more active; k-Seq, kA / k0A0; sequences stand for … in GGGAAUGGAUCCACAUCUACGAAUUC…UUCACUGCAGACUUGACGAAGCUG
How it was run: as §1

[4] = test system: biotinyl-Ile-oxazolone; assay: self-aminoacylation, catalytic enhancement (BIO) (fold over background); higher = more active; k-Seq, kA / k0A0; sequences stand for … in GGGAAUGGAUCCACAUCUACGAAUUC…UUCACUGCAGACUUGACGAAGCUG
How it was run: as §1

[5] = test system: biotinyl-Val-oxazolone; assay: self-aminoacylation, catalytic enhancement (BVO) (fold over background); higher = more active; k-Seq, kA / k0A0; sequences stand for … in GGGAAUGGAUCCACAUCUACGAAUUC…UUCACUGCAGACUUGACGAAGCUG
How it was run: as §1

[6] = test system: biotinyl-Leu-oxazolone; assay: self-aminoacylation, catalytic enhancement (BLO) (fold over background); higher = more active; k-Seq, kA / k0A0; sequences stand for … in GGGAAUGGAUCCACAUCUACGAAUUC…UUCACUGCAGACUUGACGAAGCUG
How it was run: as §1

Sequence	self-aminoacylation [1]	self-aminoacylation [2]	self-aminoacylation [3]	self-aminoacylation [4]	self-aminoacylation [5]	self-aminoacylation [6]
CCACAUUUCACGCAAUCGGUC [Fam1B.1 aminoacylation ribozyme variant]	2.13	2.16	2.75	2.33	2.68	2.68
CCACAUUUCAGGCAAUCGGUC [Fam1B.1 aminoacylation ribozyme variant]	1.92	1.59	1.58	2.2	1.93	2.2
CCACAUUUCCAGCAAUCGGUC [Fam1B.1 aminoacylation ribozyme variant]	1.26	1.23	1.64	2.12	2.04	2.15
CCACAUUUUAAGCAAUCGGUC [Fam1B.1 aminoacylation ribozyme variant]	1.19	0.864	0.901	1.33	1.24	1.29
CCACCCCUCAAGCAAUCGGUC [Fam1B.1 aminoacylation ribozyme variant]	1.64	1.14	1.05	1.18	1.27	1.28
CCACCCUGCAAGCAAUCGGUC [Fam1B.1 aminoacylation ribozyme variant]	1.28	1.23	1.3	1.42	1.73	1.17
CCACCCUUCAAGAAAUCGGUC [Fam1B.1 aminoacylation ribozyme variant]	5.63	6.09	1.16	1.24	1.19	1.26
CCACCCUUCAAGCAAGCGGUC [Fam1B.1 aminoacylation ribozyme variant]	0.522	0.963	1.25	1.01	1.4	1.36
CCACCCUUCAAGCAAUCGGUA [Fam1B.1 aminoacylation ribozyme variant]	0.981	2.06	1.38	1.4	1.6	1.59
CCACCCUUCGAGCAAUCGGUC [Fam1B.1 aminoacylation ribozyme variant]	0.944	2.58	1.94	1.49	2.06	1.34
CCACCCUUGAAGCAAUCGGUC [Fam1B.1 aminoacylation ribozyme variant]	0.764	1.34	0.972	1	1.74	1.12
CCACGCUUCAAGCAAUAGGUC [Fam1B.1 aminoacylation ribozyme variant]	0.752	0.367	0.597	0.51	0.577	0.475
CCACGCUUCAAGCAAUCGGUC [Fam1B.1 aminoacylation ribozyme variant]	76.9	39.9	1.37	1.2	1.54	2.11
CCACGCUUCAAGCAAUGGGUC [Fam1B.1 aminoacylation ribozyme variant]	0.735	0.419	0.537	0.646	0.656	0.627
CCACGCUUCAAGCACUCGGUC [Fam1B.1 aminoacylation ribozyme variant]	0.769	0.81	0.938	0.855	1.29	0.819
CCACGCUUCAUGCAAUCGGUC [Fam1B.1 aminoacylation ribozyme variant]	0.756	0.507	0.782	0.812	1.06	0.749
CCACUACAAACAAUCGGUCUG [Fam1A.1 aminoacylation ribozyme variant]	1.38	0.734	0.764	1.02	1.12	1.14
CCACUCCUCAAGCAAUCGGUC [Fam1B.1 aminoacylation ribozyme variant]	1.26	1.26	0.986	1.07	1.23	0.845
CCACUCUUAAAGCAAUCGGUC [Fam1B.1 aminoacylation ribozyme variant]	0.711	0.693	0.911	1.06	1.01	0.993
CCACUCUUCAAGCAAUCGGUG [Fam1B.1 aminoacylation ribozyme variant]	23.1	5.05	4.76	3.43	3.46	7.12
CCACUCUUCAAGCAAUGGGUC [Fam1B.1 aminoacylation ribozyme variant]	0.667	0.647	0.953	0.877	0.859	0.911
CCACUCUUCAAGCAAUUGGUC [Fam1B.1 aminoacylation ribozyme variant]	0.992	0.809	0.63	0.831	0.95	0.729
CCACUCUUCAAGCACUCGGUC [Fam1B.1 aminoacylation ribozyme variant]	0.56	0.816	1.15	1.02	0.928	1.04
CCACUCUUCAAGCCAUCGGUC [Fam1B.1 aminoacylation ribozyme variant]	0.734	0.953	1.1	1.09	1.21	1.15
CCACUUCAAACAAUCGGUCCG [Fam1A.1 aminoacylation ribozyme variant]	38.5	16.8	1.18	1.08	1.49	1.59
CCACUUCAAACAAUGGGUCUG [Fam1A.1 aminoacylation ribozyme variant]	0.725	0.691	0.887	1.07	1.03	0.97

Sequence	self-aminoacylation [1]	self-aminoacylation [2]	self-aminoacylation [3]	self-aminoacylation [4]	self-aminoacylation [5]	self-aminoacylation [6]
CCACUUCAACCAAUCGGUCUG [Fam1A.1 aminoacylation ribozyme variant]	73.2	36.4	1.7	1.68	2.01	2.76
CCACUUCAGACAAUCGGUCUG [Fam1A.1 aminoacylation ribozyme variant]	1.67	1.71	1.66	1.62	1.65	1.33
CCACUUCUAACAAUCGGUCUG [Fam1A.1 aminoacylation ribozyme variant]	0.834	0.68	0.758	0.858	0.897	0.875
CCAGACUUCAAGCAAACGGUC [Fam1B.1 aminoacylation ribozyme variant]	0.824	0.814	0.591	0.706	0.811	0.628
CCAGACUUCAAGCAAUCCGUC [Fam1B.1 aminoacylation ribozyme variant]	1.19	1.95	1.47	1.67	1.58	1.45
CCAGACUUCAAGCAAUCGGUC [Fam1B.1 aminoacylation ribozyme variant]	43.9	26	1.42	1.45	1.54	2.04
CCAGACUUCAAGCAAUCGGUU [Fam1B.1 aminoacylation ribozyme variant]	7.61	6.59	2.04	2.02	2.43	2.69
CCAGACUUCAAGCAAUCGUUC [Fam1B.1 aminoacylation ribozyme variant]	1.08	0.853	0.78	1.06	0.849	0.764
CCAGACUUCAAGCAAUCUGUC [Fam1B.1 aminoacylation ribozyme variant]	0.591	0.309	0.444	0.467	0.576	0.45
CCAGACUUCAAGCAGUCGGUC [Fam1B.1 aminoacylation ribozyme variant]	1.4	1.39	1.1	1.48	1.3	1.77
CCAGACUUUAAGCAAUCGGUC [Fam1B.1 aminoacylation ribozyme variant]	1.04	0.821	0.874	1.11	0.922	0.94
CCAGUUCAAACAAUCGGUCUG [Fam1A.1 aminoacylation ribozyme variant]	14.2	10.7	1.34	1.41	1.39	1.5
CCAUACUUCAAGCAAUCGGGC [Fam1B.1 aminoacylation ribozyme variant]	2.06	1.15	1.53	1.95	1.73	1.61
CCAUACUUCAAGCAAUCGGUG [Fam1B.1 aminoacylation ribozyme variant]	24.4	6.14	5.58	4.16	4.3	8.33
CCAUACUUCAAGCAAUUGGUC [Fam1B.1 aminoacylation ribozyme variant]	1.13	0.625	0.689	0.743	0.762	0.667
CCAUACUUCCAGCAAUCGGUC [Fam1B.1 aminoacylation ribozyme variant]	0.952	0.815	1.06	1.45	1.39	1.1
CCAUUCUUCAAGCAAUCGGUC [Fam1B.1 aminoacylation ribozyme variant]	2.79	1.68	0.939	1.04	0.976	0.992
CCAUUUCAAACAAUCGGUCUG [Fam1A.1 aminoacylation ribozyme variant]	7.75	5.46	1.13	1.03	1.04	1.19
CCCCACUUCAAGCAAUGGGUC [Fam1B.1 aminoacylation ribozyme variant]	1.88	1.96	0.959	1.32	1.67	0.835
CCCCACUUCAAGCACUCGGUC [Fam1B.1 aminoacylation ribozyme variant]	11	4.4	2.79	2.26	2.79	3.08
CCCCACUUCAAGCCAUCGGUC [Fam1B.1 aminoacylation ribozyme variant]	10	4.79	2.87	2.33	2.82	2.63
CCCCAGUUCAAGCAAUCGGUC [Fam1B.1 aminoacylation ribozyme variant]	7.95	7.44	2.77	2.48	2.65	3.86
CCGCAAUUCAAGCAAUCGGUC [Fam1B.1 aminoacylation ribozyme variant]	18.7	14.2	1.73	1.94	2.12	1.9
CCGCACUCCAAGCAAUCGGUC [Fam1B.1 aminoacylation ribozyme variant]	6.39	5.87	0.991	1.14	1.7	0.931
CCGCACUUCAAGCAAUCAGUC [Fam1B.1 aminoacylation ribozyme variant]	18.8	7.12	0.798	0.854	0.859	0.943

Source: the supplement of paper PMC9233669
